Reference: the domain aggregation screens of Martell et al. (2025)

assay: soluble fraction after stress (log2 fold change); higher = more stays soluble; pooled small domains, quantitative proteomics; conditions: stress: pH 4
Summary of the method: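 Pooled custom libraries of small protein domains were subjected to pH 4 and measured by high-throughput quantitative proteomics. The log2 fold change in soluble amount per domain is reported, higher values meaning more remained soluble. This is used as a measure of aggregation propensity.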

Row | Sequence | soluble fraction (log2)
1 | HMDLVESYDLKIIYTSELINLLIDSSRLEEALNLFKDLKDEIDDVENLGFSAKNNLDYMESKLLHLG | -1.6
2 | HMDLYIILGLERSATLSDVRRAYRRLARKYHPGINPGDRNSASVFTRVSEAYQVLSDPEQRRRYDSR | -0.583
3 | HMDMDRRALLLALINDRYHASVAEFARAINKAPAQVHQWLSGNRALGNAGARDIEIRLNLAQGYFDH | 0.282
4 | HMDMQMPIMNGLEFLERINLTLDDNFSIIVLTGKIEDKSIEKSFELGINAYLRKPFNIYALLGIVRQN | -0.102
5 | HMDMSDFEVVRDMYLTGKVWNAGDIVEAKGITGEVVRKGTNYLSFVDKNGKVHKAWLHEIEL | -0.968
6 | HMDNAILQELYDYYKEDPSLSQSELIISMLTRIQEAVGYVSKDVQEEVARLAGVNRGYVAAIIKNLPHL | -0.963
7 | HMDNEYDKVYQAALSKLEGYPRSSITTAVIKDVVAQTIKYFEIKNFGYEDTIINQLQSAFTVKSSS | 0.0114
8 | HMDNLSESQIKAYSSILSRTHEISDLAENKDYLAFSLWIANILRDPQSVREETAKRVFSALHTNTDFK | -0.793
9 | HMDNMFMPPVNGWDVRQALQKLQNEMGLQVKMEYSPSETITEGYVISYTPIDGMKVEKGDEVTLVISTGPE | -0.675
10 | HMDNMTEMQKAVTALIEKSGGSIDNLSVIYDHLKKKYPSFDLKDYGYSRFSSFLRSMENIMVRGNAVTLRS | 0.0508
11 | HMDNPPDRAEIEQMLKDAGLTPEADAMAALSDLARTLDPGDFRQTLEKITLYKLGDSTPIGLDDIAAGAP | -1.18
12 | HMDNQSIVRINDGDGAWRQRLGEHFGHLPRDRKRGEIVLQVDAADWRWLQTQGYAPRFDAALSAQLQTTL | -0.147
13 | HMDNVLGKSGKVIFVNEEINSYGRAFIPGHGEWNIRTKSDQNIHINDGIKVIERDGITLVVEL | -1.3
14 | HMDNVQLRNFAIKATEASIIYLDQEQRNFFWYNNNKKLMTVPFDENPYSAFAAYLKTDEGSEVYKAIEKKF | -0.504
15 | HMDNWAALLSEREVQVSRLVANGASNKEIADHLAITERTVKAHLTAVFEKLGVRDRLQLSLRVNGL | -1.64
16 | HMDPALSPAEQKIWDLLAAGETHIDDLVRASGLPVATVNSALVMMEMKEVISQVAAKTYRRNRRN | -0.458
17 | HMDPEARRRAILNAAIDVIVEKGAAALTHRAVAARAGVSLGSTTKYFSSIEDLRENAMDALVREMD | -0.756
18 | HMDPEEQIQSREIWEAVERALDGMQEKGRRVVIALLEGQTQLEVSRAAGISQPLISYYLKSFRTKVRTELG | -0.269
19 | HMDPEIADAVNTIKKYLESHYSEVITRKKIEELVHLNQDHINREFKKQTGYTLMEYVQHYRILMAKKMLRV | -0.1
20 | HMDPEQLKIAINTKMPFGKYSGRPLLLLPEPYLVWFKQQGFPDSKLGSQLAMMYEVKLNGLEQMLMPLL | -0.506
21 | HMDPERLDQLQNPDPAVRREAIIALGRSKDLAALPELAKVYKNDPVPELRELARQAGRYIQQENRP | 0.254
22 | HMDPFVILGISKDSSQSEILEAYKTKRAYYQEHVFDEGDQGAQAARMLGQLDDAYQQAMELSHE | 0.139
23 | HMDPKISWESDEKLSANIGHYENSIKPLMGNKYLIELSQLKDKIESHPWVARATIKRIFWNKIHIQLESHD | 0.108
24 | HMDPKWSHVRRLLDDENPIVRKALTEELIRSPEEGLAFLEQVIREPDHLLAKHAHNLLSELGWV | 0.0459
25 | HMDPLGHVIKKKRLQLGMTLRDLAAKAGVHHATIDRIETDQFKVVDPSTLVKIAEALHLDQLYLLSLN | -0.532

Row | Sequence | soluble fraction (log2)
26 | HMDPLPDEVQEVIDMVDGFKAMDELSEADKADVKAAYDAYNALSAEHKAMVPEHIVTFLNRAYDKLFD | -1.63
27 | HMDPPVDLTPREQQVLSRIALGMSDKAIAAELGVSHQTVRNHVARIYAKIKVHSRSQAIVWAREKGIP | -0.109
28 | HMDPSKMKIDELEIATRTATALADGGIKSVAGLIRKSASALKELDGVGDKAIAEITEALEKLGLELKG | -0.157
29 | HMDPSWVPVFNNLRDAILSHQLLPGTRLAEDELSNIYGLGRTVIRSALGALTHEGLLTHIPNRGVHVAKP | -0.585
30 | HMDPTIAAIRKKLKNWTIVEVHMTREELEQAVIDGKVDVFLSSAGFYRRLVRFGARDLATAMSPAYPD | -0.151
31 | HMDPTYYFNLYPNPSKDEVSLFTNFTGKINIEILDLAGKSILSDNPISTISLVSLKEGLYLVKVKS | -0.337
32 | HMDPYLSGLLQKLAETDKKISFTRLRSEDLDGESREAIYEFIEKYSGRFGVRWLLNEFGLSPSVYYNYLHS | -0.644
33 | HMDQDLGFLINKYFELGKDYNTLVEIYEKIKEYIASIDKKMLEYTKNFTIEQLKKWLDDGTINNIILTLG | -0.382
34 | HMDQEDAYMQVRQVFDTLLVSELSKRIFAWRFFEGKSFAEWPGAESQKFLYDTFNRILLIISAKIRRKNA | -0.522
35 | HMDQHERQQLLIHIAGGEREALAELYQRTRSAVYGLALSYLKNAHDAQDLTRDVYVQVWDRA | 0.0408
36 | HMDQQTKFKTALAALAASAETKDRKLTKADVKEFLEDMDLGEEQMKLVYAYLASKHIHVEGAE | -0.0463
37 | HMDQSIDADIINLNFSKNIIKIEENVYYKNNNAKVNADKIEINIETKKLKISMNEQEDEVEIFAK | -0.399
38 | HMDQTIFFGQQKAINNLSTDAGLSATELDEYLKKRYKRPLYQLTQAEGAEIIKGFQDGALSRSSILDYTK | 0.22
39 | HMDRKFFFNEQYEDYINSDLKVKFMNDSGSKKSFQGELTKVTPSDLFLESEKESVKVPFSSIIQANLI | -0.591
40 | HMDRLTISTLGNGLFRVNGAEAEATVYNLSGNVVKVVPADEVIDLSSLAKGVYIIHVDGEAFKVI | -0.0808
41 | HMDRMFQPETWSKIYQWVMNDPQVPDKEDVLALIRRHFGNFEKLIKLLHYLDGGKPYAYLSEH | 0.411
42 | HMDRSLYVGDAVGFDSARGLMEIEVKNKFSVVAVSLKKKPSGNFITPLLRMEKKKGEAVTVAPGSGHR | -0.141
43 | HMDRSQRDQEQAQLIRLVQQAFDDSGQRYGAEKIRITLAEGGIRVSTKRIAAIMQELDLRSI | 0.251
44 | HMDRSRAEIDLGHVETAIRTLAEGGMVQEYAIGGRSLKRYKMGELLQLKAELENEINMERRKEKMRQ | 0.184
45 | HMDRVDGWLHDGKLYLRVVDYKTGKKSFDLAELRYGLGLQMLLYLFTLKEEGQMLFGGHEIVPAGVL | -0.282
46 | HMDRVSEITLTRLRDYAADGQVRTATLTHRTNVVTGTLRDGRRFSAGVPPMYGDELTTFLLDNGVRVDSDN | -0.276
47 | HMDSDMGQQLKTLLTVGTFMSSKELKAIAQQLGLKKPTDLKEWVELESGTQRIEGKPTKGYWIKMNDINN | -0.288
48 | HMDSGINVWASAEGLTITADKDTTVYVYDIYGRTIHTSEVKAGTSDIAINTKGIVIVKANGYTKKII | -0.76
49 | HMDSILSIVGGEESYKALLAWAENNISQQELQQLETILKSGNVPAIKRVLVTLMNRFNQAQS | -0.547
50 | HMDSINGEASISRELHGTRFDQAAAILFPEFSRSRLQAWIGAGALTLDGQTARAKDKVTQGQHLVLAAAVE | -0.536
